Laboratory results: patent US12144869B2, “Anti-ROR1 antibody conjugates, compositions comprising anti ROR1 antibody conjugates, and methods of making and using anti-ROR1 antibody conjugates” (Sutro Biopharma, Inc., priority 2022, dated 2024)

Columns and labels:
[1] = tested on: ROR1-positive Ntera-2 cells co-cultured with PMBCS; experiment: Ntera-2/PBMC co-culture: target cell killing and monocyte activation; format: cell-based
Method: ROR1-positive Ntera-2 cells were co-cultured with PMBCS at E:T=[…] and treated with Conjugate 46 or exatecan for 3 days. Live target cell count and monocyte activation were measured by FACS. […] FIG. 21A and FIG. 21B are graphs showing the percent of live target cells and monocyte activation in Ntera-2 cells following treatment with Conjugate 46 or exatecan compared to the un-conjugated antibody and an isotype control of Conjugate 46. […] Unconjugated anti-ROR1 antibody or a non-targeted ADC had no activity. […] Viability and calreticulin surface expression were measured and presented as a percentage compared to untreated cells.

[2] = tested on: ROR1 positive Ntera-2 cell; experiment: In vitro cell killing of ROR1 ADCs on Ntera-2; format: cell-based
Method: (§1) Anti-ROR1 antibody was conjugated to different linker-warheads described herein at different DARs and the cell killing activity of the ADCs were evaluated on ROR1 positive Ntera-2 cell and ROR1 negative MCF7 cells.
(§2) Ntera-2 or MCF7 cell at 625 cells/25 μL were seeded in a 384-well flat bottom white polystyrene plate one day before the assay start. ADCs were formulated at 2× starting concentration. Filter sterilized samples were serial diluted (1:3) under sterile conditions and added onto cells in triplicates. Plates were cultured at 37° C. in a CO2 incubator for 120 hours. For cell viability measurement, 30 microliter of Cell Titer-Glo® reagent (Promega Corp, Madison, WI) was added into each well, and plates processed as per product instructions. Relative luminescence was measured on an ENVISION® plate reader (Perkin-Elmer; Waltham, MA). Relative luminescence readings were converted to % viability using untreated cells as controls. Data was fitted with non-linear regression analysis, using log (inhibitor) vs. response, variable slope, 4-parameter fit equation using GraphPad Prism.
To evaluate if the cell killing activity of anti-ROR1 ADCs is dependent on antibody binding to ROR1 expressed on cell surface, the same linker-warheads (LP3, LP4) were conjugated to an anti-GFP antibody and the cell killing of the anti-ROR1 and anti-GFP ADCs were evaluated in cell killing assays on ROR1 positive Ntera-2 cell and ROR1 negative MCF7 cells. […]

[3] = tested on: ROR1-positive Ntera-2 cells; experiment: Induction of immunogenic cell death markers (calreticulin FACS, HMGB1 ELISA); format: cell-based; settings: 3 days treatment
Method: ROR1-positive Ntera-2 cells were treated with Conjugate 46 or exatecan for 3 days. Calreticulin on the cell surface was measured by FACS and HMGB1 in the cell culture medium were measured by ELISA. […] FIG. 20A and FIG. 20B illustrate calreticulin expression and HMGB1 release of Ntera-2 cells in the presence of Conjugate 46 or exatecan compared to the un-conjugated antibody and an isotype control of Conjugate 46.

ROR1 negative MCF7 cells = experiment: In vitro cell killing of ROR1 ADCs on MCF7; format: cell-based
Method: as §1, §2
To evaluate if the cell killing activity of anti-ROR1 ADCs is dependent on antibody binding to ROR1 expressed on cell surface, the same linker-warheads (LP3, LP4) were conjugated to an anti-GFP antibody and the cell killing of the anti-ROR1 and anti-GFP ADCs were evaluated in cell killing assays on ROR1 positive Ntera-2 cell and ROR1 negative MCF7 cells.

human ROR1-Fz = target: T1, human ROR1-Fz (Homo sapiens, UniProt Q01973); experiment: Biacore off-rate and kinetic analysis, ROR1-Fz; format: binding; settings: Table 11; SP34 light chain
T1 construct: Frizzled (Fz, residues 165-305); His6 (C); purchased Acro Biosystems; host or cells: HEK293
Procedure, shortened: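 Anti-ROR1 antibodies captured on anti-human Fc surface; recombinant hROR1 ECD or ROR1-Fz analyte flowed at 100, 50, 25, 6.25, 1.5625 nM plus 0 nM, 180 s association, 600 s dissociation, 25° C., HBS-EP+ buffer. KD from ratio of rate constants, 1:1 Langmuir fit.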

[4] = Differential scanning fluorimetry (protein thermal shift; TM1/TM2); format: physicochemical; settings: Table 11; melting temperature of the Fab domain
Procedure, shortened: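 Protein at 0.2-2 mg/mL was mixed 1:1 with SYPRO Orange in PBS and heated to 95° C. at ~1.5° C. per minute while fluorescence was monitored, in quadruplicate. TM1 is Fc (CH2) unfolding and TM2 is Fab unfolding.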

ROR1 or ROR2 = experiment: ROR2 cross-reactivity ELISA (ROR1/ROR2 signal ratio); format: binding; settings: Table 11; SP34 light chain
Method: Antibodies were tested for their ability to bind to either ROR1 or ROR2 via ELISA. Briefly, 2 μg/mL of ROR1 or ROR2 (Acro Biosystems) were coated to 384-well polystyrene plates for 1 hr at 30° C. in 0.1 M bicarbonate pH8.9 buffer before they were washed and blocked with 2% BSA in PBST (PBS, 0.1% Tween20) for 1 hr. Antibody variants were diluted to 2.5 μg/mL and further serially diluted 3-fold before 30 μL was applied to the ELISA plates for binding (1 hr at 30° C.). Antibody binding was detected via HRP-conjugated anti-human Fc antibodies (Jackson Immunoresearch) and detection with SuperSignal ELISA Pico Chemiluminescent Substrate (Pierce). Cross-reactivity was reported as a ratio of ROR1-ELISA signal over ROR2-ELISA signal at the highest dilution tested.

T1 sequence (Q01973 165-305): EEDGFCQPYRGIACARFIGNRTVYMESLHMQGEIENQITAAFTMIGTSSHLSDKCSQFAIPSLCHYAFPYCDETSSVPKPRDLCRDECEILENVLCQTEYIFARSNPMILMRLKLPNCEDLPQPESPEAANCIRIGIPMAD

| Molecule | cell killing of target cells (live target cell count, FACS) ([1]; E:T=10.1, 3 days) | monocyte activation (CD86 expression) ([1]; E:T=10.1, 3 days) | calreticulin on the cell surface ([1]; concomitant with reduced viability) | EC50 ([2]; NTERA2, 120 h, read-out: NTERA-2 EC50) [pM] | NTERA-2 Span ([2]; Table 13, ROR1 positive Ntera-2, 120 hours) [%] | HMGB1 release into the cell culture medium (ELISA) [3] | calreticulin translocation to the cell surface (FACS) [3] | EC50 (ROR1 negative MCF7 cells; Homo sapiens, MCF7, 120 h, read-out: MCF-7 EC50) [pM] | MCF-7 Span (ROR1 negative MCF7 cells; Table 13, ROR1 negative MCF7, 120 hours) [%] | Biacore human ROR1-Fz ka (human ROR1-Fz) [M⁻¹ s⁻¹] | Biacore human ROR1-Fz kd (human ROR1-Fz) [s⁻¹] | TM2 (° C.) [4] [°C] | ROR1/ROR2 ELISA ratio (ROR1 or ROR2) |
| --- | --- | --- | --- | --- | --- | --- | --- | --- | --- | --- | --- | --- | --- |
| CC[C@@]1(O)C(=O)OCc2c1cc1n(c2=O)Cc2c-1nc1cc(F)c(C)c3c1c2[C@@H](N)CC3 [exatecan] | induced potent cell killing of target cells | potently induced monocyte activation | could be detected on the cell surface | 74 | 98 | induced | induced | 466 | 91 | – | – | – | – |
| SRP2196-A09 (antibody, V domains shown) VH: EVQLVESGGGLVQPGGSLRLSCAASGFNITGYYIHWVRQAPGKGLEWVGQISPNSGATHYADSVKGRFTISADTSKNTAYLQMNSLRAEDTAVYYCARDSRRYIRSWDYWGQGTLVTVSS VL: QAVVTQESALTTSPGETVTLTCRSSTGAVTTSNYANWVQEKPDHLFTGLIGGTNKRAPGVPARFSGSLIGDKAALTITGAQTEDEAIYFCALWYSNLWVFGGGTKLTVL | – | – | – | – | – | – | – | – | – | 150000 | 0.000568 | 75 | 20.1 |
| SRP2196-B11 (antibody, V domains shown) VH: EVQLVESGGGLVQPGGSLRLSCAASGFNITGYYIHWVRQAPGRGLEWVGQISPNSGYTYYADSVKGRFTISADTSKNTAYLQMNSLRAEDTAVYYCARDSRRYIRSWDYWGQGTLVTVSS VL: QAVVTQESALTTSPGETVTLTCRSSTGAVTTSNYANWVQEKPDHLFTGLIGGTNKRAPGVPARFSGSLIGDKAALTITGAQTEDEAIYFCALWYSNLWVFGGGTKLTVL | – | – | – | – | – | – | – | – | – | 137000 | 0.000597 | 74 | 19.1 |
| SRP2196-B01 (antibody, V domains shown) VH: EVQLVESGGGLVQPGGSLRLSCAASGFNITGYYIHWVRQAPGKGLEWVGQISPNSGYTYYADSVKGRFTISADTSKNTTYLQMNSLRAEDTAVYYCARDSRRYVRSWDYWGQGTLVTVSS VL: QAVVTQESALTTSPGETVTLTCRSSTGAVTTSNYANWVQEKPDHLFTGLIGGTNKRAPGVPARFSGSLIGDKAALTITGAQTEDEAIYFCALWYSNLWVFGGGTKLTVL | – | – | – | – | – | – | – | – | – | 131000 | 0.000401 | 75 | 17.2 |
| SRP2196-B09 (antibody, V domains shown) VH: EVQLVESGGGLVQPEGSLRLSCAASGFNITEYYIHWVRQAPGKGLEWVGYISPNSGSTYYADSVKGRFTISADTSKNTAYLQMNSLRAEDTAVYYCARDSRRYVRSWDYWGQGTLVTVSS VL: QAVVTQESALTTSPGETVTLTCRSSTGAVTTSNYANWVQEKPDHLFTGLIGGTNKRAPGVPARFSGSLIGDKAALTITGAQTEDEAIYFCALWYSNLWVFGGGTKLTVL | – | – | – | – | – | – | – | – | – | 130000 | 0.000427 | 72 | 27.3 |
| SRP2196-B03 (antibody, V domains shown) VH: EVQLVESGGGLAQPGGSLRLSCAASGFNITGYYIHWVRQAPGKGLEWVGYISPNSGATHYADSVKGRFTISADTSKNTAYLQMNSLRAEDTAVYYCARDSRRYVRPFDYWGQGTLVTVSS VL: QAVVTQESALTTSPGETVTLTCRSSTGAVTTSNYANWVQEKPDHLFTGLIGGTNKRAPGVPARFSGSLIGDKAALTITGAQTEDEAIYFCALWYSNLWVFGGGTKLTVL | – | – | – | – | – | – | – | – | – | 124000 | 0.000945 | 71 | 22.8 |
